These are literature values, as cited in PMC10651016.

The data set relates to Lys110. The data set is described as follows: kinetics. The note with it: steady-state turnover with L-proline; FAD-bound enzyme.

“L-proline dehydrogenase (ProDH) (Mycobacterium tuberculosis)”: the pKa is reported as 6.8.

One may read the pKa as the pH at which an ionisable group is half protonated.
